Measured values from patent US20160051694A1.

Tests used:
[1] = target: CD37 (Leukocyte Antigen CD37, Tetraspanin-26) on cells (human) (UniProt P11049); assay: FACS, 5 ug/mL biotinylated control antibody + streptavidin-PE, Hel 92.1 cells (AML); filing calls it high isotype control background binding
[2] = target: CD37 (Leukocyte Antigen CD37, Tetraspanin-26) on cells (human) (UniProt P11049); assay: FACS, 5 ug/mL biotinylated control antibody + streptavidin-PE, Raji cells (Burkitt's); background control
[3] = target: CD37 (Leukocyte Antigen CD37, Tetraspanin-26) on cells (human) (UniProt P11049); assay: FACS, 5 ug/mL biotinylated control antibody + streptavidin-PE, DOHH-2 cells (Follicular); background control
[4] = target: CD37 (Leukocyte Antigen CD37, Tetraspanin-26) on cells (human) (UniProt P11049); assay: FACS, 5 ug/mL biotinylated control antibody + streptavidin-PE, KG-1 cells (AML); filing calls it high isotype control background binding
[5] = target: CD37 (Leukocyte Antigen CD37, Tetraspanin-26) on cells (human) (UniProt P11049); assay: FACS, 5 ug/mL biotinylated control antibody + streptavidin-PE, MOLM-13 cells (AML); background control
[6] = target: CD37 (Leukocyte Antigen CD37, Tetraspanin-26) on cells (human) (UniProt P11049); assay: FACS, 5 ug/mL biotinylated control antibody + streptavidin-PE, Ramos RR XCL cells (Burkitt's); background control
[7] = target: CD37 (Leukocyte Antigen CD37, Tetraspanin-26) on cells (human) (UniProt P11049); assay: FACS, 5 ug/mL biotinylated control antibody + streptavidin-PE, BDCM cells (AML); background control
[8] = target: CD37 (Leukocyte Antigen CD37, Tetraspanin-26) on cells (human) (UniProt P11049); assay: FACS, 5 ug/mL biotinylated control antibody + streptavidin-PE, RS4-11 cells (ALL); background control
[9] = target: CD37 (Leukocyte Antigen CD37, Tetraspanin-26) on cells (human) (UniProt P11049); assay: FACS, 5 ug/mL biotinylated control antibody + streptavidin-PE, Mino cells (MCL); background control
[10] = target: CD37 (Leukocyte Antigen CD37, Tetraspanin-26) on cells (human) (UniProt P11049); assay: FACS, 5 ug/mL biotinylated control antibody + streptavidin-PE, MV-4-11 cells (AML); background control
[11] = target: CD37 (Leukocyte Antigen CD37, Tetraspanin-26) on cells (human) (UniProt P11049); assay: FACS, 5 ug/mL biotinylated control antibody + streptavidin-PE, HL-60 cells (AML); background control
[12] = target: CD37 (Leukocyte Antigen CD37, Tetraspanin-26) on cells (human) (UniProt P11049); assay: FACS, 5 ug/mL biotinylated control antibody + streptavidin-PE, Kasumi-1 cells (AML); background control
[13] = target: CD37 (Leukocyte Antigen CD37, Tetraspanin-26) on cells (human) (UniProt P11049); assay: FACS, 5 ug/mL biotinylated control antibody + streptavidin-PE, Ramos cells (Burkitt's); background control
[14] = target: CD37 (Leukocyte Antigen CD37, Tetraspanin-26) on cells (human) (UniProt P11049); assay: FACS, 5 ug/mL biotinylated control antibody + streptavidin-PE, Daudi cells (Burkitt's); background control
[15] = target: CD37 (Leukocyte Antigen CD37, Tetraspanin-26) on cells (human) (UniProt P11049); assay: FACS, 5 ug/mL biotinylated control antibody + streptavidin-PE, SU-DHL-4 cells (DLBCL); background control
[16] = target: CD37 (Leukocyte Antigen CD37, Tetraspanin-26) on cells (human) (UniProt P11049); assay: FACS, 5 ug/mL biotinylated control antibody + streptavidin-PE, JVM-3 cells (CLL); background control
[17] = target: CD37 (Leukocyte Antigen CD37, Tetraspanin-26) on cells (human) (UniProt P11049); assay: FACS, 5 ug/mL biotinylated control antibody + streptavidin-PE, Mino XCL cells (MCL); background control
[18] = target: CD37 (Leukocyte Antigen CD37, Tetraspanin-26) on cells (human) (UniProt P11049); assay: FACS, 5 ug/mL biotinylated control antibody + streptavidin-PE, Granta-519 cells (MCL); filing calls it high isotype control background binding
[19] = target: CD37 (Leukocyte Antigen CD37, Tetraspanin-26) on cells (human) (UniProt P11049); assay: FACS, 5 ug/mL biotinylated control antibody + streptavidin-PE, MOLT-4 cells (ALL); background control
[20] = target: CD37 (Leukocyte Antigen CD37, Tetraspanin-26) on cells (human) (UniProt P11049); assay: FACS, 5 ug/mL biotinylated control antibody + streptavidin-PE, WSU-DLCL-2 cells (DLBCL); background control
[21] = target: CD37 (Leukocyte Antigen CD37, Tetraspanin-26) on cells (human) (UniProt P11049); assay: FACS, 5 ug/mL biotinylated control antibody + streptavidin-PE, REC-1 cells (MCL); background control
[22] = target: CD37 (Leukocyte Antigen CD37, Tetraspanin-26) on cells (human) (UniProt P11049); assay: FACS, 5 ug/mL biotinylated control antibody + streptavidin-PE, THP-1 cells (AML); background control
[23] = target: CD37 (Leukocyte Antigen CD37, Tetraspanin-26) on cells (human) (UniProt P11049); assay: FACS, 5 ug/mL biotinylated control antibody + streptavidin-PE, EoL-1 cells (AML); background control

Chain of CD37 (Leukocyte Antigen CD37, Tetraspanin-26) on cells (human) (P11049 whole entry): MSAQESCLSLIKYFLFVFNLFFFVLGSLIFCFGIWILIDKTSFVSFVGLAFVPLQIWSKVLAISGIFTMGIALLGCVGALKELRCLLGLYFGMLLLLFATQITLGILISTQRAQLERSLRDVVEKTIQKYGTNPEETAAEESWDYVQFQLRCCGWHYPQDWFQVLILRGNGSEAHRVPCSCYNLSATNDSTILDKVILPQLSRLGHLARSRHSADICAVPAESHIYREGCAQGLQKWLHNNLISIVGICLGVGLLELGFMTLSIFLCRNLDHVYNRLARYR

- Geometric Mean (fluorescence) [1]: 4220
- Geometric Mean (fluorescence) [2]: 1760
- Geometric Mean (fluorescence) [3]: 840
- Geometric Mean (fluorescence) [4]: 8190
- Geometric Mean (fluorescence) [5]: 240
- Geometric Mean (fluorescence) [6]: 693
- Geometric Mean (fluorescence) [7]: 290
- Geometric Mean (fluorescence) [8]: 155
- Geometric Mean (fluorescence) [9]: 1480
- Geometric Mean (fluorescence) [10]: 247
- Geometric Mean (fluorescence) [11]: 967
- Geometric Mean (fluorescence) [12]: 188
- Geometric Mean (fluorescence) [13]: 1150
- Geometric Mean (fluorescence) [14]: 2040
- Geometric Mean (fluorescence) [15]: 1050
- Geometric Mean (fluorescence) [16]: 1930
- Geometric Mean (fluorescence) [17]: 200
- Geometric Mean (fluorescence) [18]: 15400
- Geometric Mean (fluorescence) [19]: 1310
- Geometric Mean (fluorescence) [20]: 1200
- Geometric Mean (fluorescence) [21]: 1010
- Geometric Mean (fluorescence) [22]: 324
- Geometric Mean (fluorescence) [23]: 189
Substance: Isotype matched control antibody (biotinylated)
